Measurements as given in paper PMC8657803, “Structural Insight into the Binding of TGIF1 to SIN3A PAH2 Domain through a C-Terminal Amphipathic Helix” (International Journal of Molecular Sciences, 2021).

Biological target: T1, TGIF1_(256–401), recombinant truncation covering RD2 (human, UniProt Q15583-1 256-401)
T1 construct: two additional residues left at the N-terminus after thrombin removal of the purification tag; 15N-labelled in the NMR titration; also called TGIF1 RD2 truncation; TGIF1 M256–A401
T1 sequence (Q15583 other isoform, or with tags, fused parts or gaps): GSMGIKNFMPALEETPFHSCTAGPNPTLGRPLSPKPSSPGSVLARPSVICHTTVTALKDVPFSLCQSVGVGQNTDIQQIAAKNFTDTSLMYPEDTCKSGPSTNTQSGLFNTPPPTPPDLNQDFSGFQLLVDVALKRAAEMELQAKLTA
Assay: NMR titration; 0.1 mM 15N-labelled TGIF1 truncation mixed with non-labelled SIN3A PAH2 at molar ratios 1:0 to 1:2; 1H-15N HSQC; 20 mM HEPES, 80 mM NaCl, 2 mM DTT, 0.05% NaN3, pH 6.4, 90% H2O/10% D2O; 293 K (25 °C) as printed
Conditions: both partners purified

- binding result: binds
B1: SIN3A PAH2 (residues S295–N384), recombinant (domain or fragment, human, UniProt Q96ST3 295-384, looked up)
chain: SLQNNQPVEFNHAINYVNKIKNRFQGQPDIYKAFLEILHTYQKEQRNAKEAGGNYTPALTEQEVYAQVARLFKNQEDLLSEFGQFLPDAN
notes: SIN3A, human, paired amphipathic helix domain 2 (PAH2), residues S295-N384; Non-labelled
